Experimental data from patent WO2012172495A1 (dated 2012).

Key:
[1] = molecular target: T1, human TEM8 on transfected HEK-293 cells (293/Flag-hTEM8) (human, UniProt Q9H6X2 33-564); test: immunofluorescence microscopy, 10 ug/ml Fab on HEK-293 cells transfected with human TEM8, against untransfected HEK-293
T1 construct: also called HEK-293 transfected with human TEM8

[2] = molecular target: T2, purified recombinant hTEM8(ED)-Fc fusion protein, biotinylated (human, UniProt Q9H6X2 33-321, biotinylated (site not stated)); test: ELISA, Fab on biotinylated human TEM8-Fc
T2 construct: also called human TEM8-Fc
T2 sequence: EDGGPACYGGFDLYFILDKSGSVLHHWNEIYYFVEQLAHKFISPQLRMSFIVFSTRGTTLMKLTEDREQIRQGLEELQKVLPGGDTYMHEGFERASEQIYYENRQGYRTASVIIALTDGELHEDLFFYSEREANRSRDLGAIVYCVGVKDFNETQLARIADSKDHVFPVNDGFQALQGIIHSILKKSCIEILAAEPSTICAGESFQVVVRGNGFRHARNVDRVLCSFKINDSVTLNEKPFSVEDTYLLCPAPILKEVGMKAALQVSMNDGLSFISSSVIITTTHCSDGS

binding result [1]: binds
binding result [2]: binds
B1: L5 Fab fragment (Anti-human TEM8_cl4) (Fab, V domains shown)
VH: QVQLVESGGGLVQPGGSLRLSCAASGFTFNSYGLSWVRQAPGKGLEWVSNISSNGSYTYYADSVKGRFTISRDNSKNTLYLQMNSLRAEDTAVYYCARAGYGLFDVWGQGTLVTVSS
VL: DIELTQPPSVSVAPGQTARISCSGDKLREYYVHWYQQKPGQAPVLVIYGDNKRPSGIPERFSGSNSGNTATLTISGTQAEDEADYYCSSWAGSRSGTVFGGGTKLTVL
notes: Tested as a purified Fab fragment; The light chain is lambda
